{
  "source": "patent US20260085129A1",
  "about": "(ECO ANIMAL HEALTH, published 2026)",
  "binders": {"B1": {"name": "Clone 39-H17B11 VHH antibody (VHH)", "VHH": "QVQLVESGGGLVQAGGSLRLSCAASGRTFSSYAMGWFRQTPGKDREFVARIGWTGGTTIYADSVKGRFTISRDNAKNTVYLQMNSLKPEDTAVYYCAADQAGWRTAGVRNTYEYDYWGQGTQVTVSS", "notes": "Llama single domain antibody; also called clone 17B11; not shown: tags: c-myc tag on the soluble VHH in periplasmic extracts; FLAG and His tags on the purified VHH"}},
  "key": {"pCD163-SRCR1-9-huFc": {"biological_target": "T1, pCD163-SRCR1-9-huFc (porcine, UniProt Q2VL90 51-1028)", "T1 construct": "Limits 51-1028 are those the description gives for CD163-SRCR1-9; also called porcine CD163 SRCR1 to SRCR9 (no PST2) with human Fc; soluble CD163; not shown: human Fc (huFc)", "T1 sequence": "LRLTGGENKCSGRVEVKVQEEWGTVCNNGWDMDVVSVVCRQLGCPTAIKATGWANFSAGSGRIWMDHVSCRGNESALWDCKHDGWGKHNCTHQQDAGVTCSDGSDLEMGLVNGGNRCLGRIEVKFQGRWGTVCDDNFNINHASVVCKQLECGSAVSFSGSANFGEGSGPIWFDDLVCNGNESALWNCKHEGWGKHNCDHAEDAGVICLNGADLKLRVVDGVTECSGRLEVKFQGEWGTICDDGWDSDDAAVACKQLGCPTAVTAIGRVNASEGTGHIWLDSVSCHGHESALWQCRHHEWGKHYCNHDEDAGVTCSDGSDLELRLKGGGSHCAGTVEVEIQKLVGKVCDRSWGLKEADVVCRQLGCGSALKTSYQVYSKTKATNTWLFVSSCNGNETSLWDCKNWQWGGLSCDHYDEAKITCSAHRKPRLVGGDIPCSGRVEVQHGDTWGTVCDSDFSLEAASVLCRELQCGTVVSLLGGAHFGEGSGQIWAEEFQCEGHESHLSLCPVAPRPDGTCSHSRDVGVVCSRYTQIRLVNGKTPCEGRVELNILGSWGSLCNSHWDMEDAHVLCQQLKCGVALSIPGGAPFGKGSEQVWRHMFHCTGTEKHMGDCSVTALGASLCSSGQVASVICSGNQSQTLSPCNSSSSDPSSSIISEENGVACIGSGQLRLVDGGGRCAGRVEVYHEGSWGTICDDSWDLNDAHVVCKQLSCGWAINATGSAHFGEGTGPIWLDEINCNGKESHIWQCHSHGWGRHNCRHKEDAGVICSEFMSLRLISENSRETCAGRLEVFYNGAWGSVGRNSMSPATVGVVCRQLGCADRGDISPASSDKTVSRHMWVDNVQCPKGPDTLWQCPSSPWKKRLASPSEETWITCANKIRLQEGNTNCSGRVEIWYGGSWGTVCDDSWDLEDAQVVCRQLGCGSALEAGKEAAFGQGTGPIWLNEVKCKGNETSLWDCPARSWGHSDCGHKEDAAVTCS", "test": "P.E. binding ELISA, antigen coated at 1 ug/ml, anti-c-Myc detection", "protocol": "(§1) For P.E. binding ELISA, MaxiSorp™ high protein-binding capacity 96 well ELISA plates, were coated with 1 μg/ml of pCD163-SRCR-FL-PST2-His or huCD6-pPST2-His, or pCD163-SRCR1-9-huFc protein, diluted in PBS, overnight at 4° C. The next day, plates were washed 3× with PBS Tween 0.05% (pH 7.4) and blocked for 1 hour at room temperature with 250 μl/well of 4% Marvel/PBS. After blocking, plates were washed 3× with PBS Tween 0.05% (pH7.4) and incubated per well with 20 μl of P.E+80 μl in 1% Marvel/PBS (pH7.4), for 1 hour at room temperature (RT) with shaking. Plates were washed 3× with PBS Tween 0.05% (pH7.4) and incubated with 100 μl of anti-c-Myc antibody (Roche; Cat. nr. 11667203001) followed by secondary antibody DAM-HRP (JIR; Cat. nr. 715-035-150) in 1% Marvel/PBS (pH7.4), for 1 hour at RT with shaking. Plates were washed 3× with PBS Tween 0.05% (pH7.4) and the substrate solution (TMB solution) was added to the plates. Reaction was stopped with H2SO4 and plates read in the plate reader at 450 nm."}, "huCD6-pPST2-His": {"biological_target": "T2, huCD6-pPST2-His (human, UniProt P30203 18-402)", "T2 construct": "composition read from the name; not shown: His tag", "T2 sequence (P30203 whole entry)": "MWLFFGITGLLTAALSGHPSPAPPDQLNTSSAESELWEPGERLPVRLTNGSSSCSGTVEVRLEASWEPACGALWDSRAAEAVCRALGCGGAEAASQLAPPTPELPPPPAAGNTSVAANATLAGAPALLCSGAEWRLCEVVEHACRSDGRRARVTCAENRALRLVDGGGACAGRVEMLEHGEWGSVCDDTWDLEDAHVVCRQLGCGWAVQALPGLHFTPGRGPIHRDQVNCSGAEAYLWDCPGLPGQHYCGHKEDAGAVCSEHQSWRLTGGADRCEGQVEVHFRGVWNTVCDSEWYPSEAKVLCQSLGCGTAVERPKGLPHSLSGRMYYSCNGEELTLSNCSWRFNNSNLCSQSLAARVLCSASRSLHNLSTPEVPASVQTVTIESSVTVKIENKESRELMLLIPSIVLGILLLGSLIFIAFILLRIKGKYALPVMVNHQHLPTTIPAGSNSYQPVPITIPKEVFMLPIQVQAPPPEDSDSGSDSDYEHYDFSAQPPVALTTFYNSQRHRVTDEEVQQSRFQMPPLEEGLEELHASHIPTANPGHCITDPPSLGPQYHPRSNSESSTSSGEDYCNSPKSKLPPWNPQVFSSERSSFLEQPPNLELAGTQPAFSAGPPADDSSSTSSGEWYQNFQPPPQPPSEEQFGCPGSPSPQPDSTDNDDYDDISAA", "test": "P.E. binding ELISA, antigen coated at 1 ug/ml, anti-c-Myc detection", "protocol": "as §1"}},
  "data": [
    {"binder": "B1", "values": [
      {"measurement": "O.D. 450 nm", "setting": "pCD163-SRCR1-9-huFc", "value": 0.091, "unit": "O.D. 450 nm"},
      {"measurement": "O.D. 450 nm", "setting": "huCD6-pPST2-His", "value": 0.052, "unit": "O.D. 450 nm"}
    ]}
  ]
}
